The values that follow come from publication PMC6368335, “Inhibition of the Staphylococcus aureus c-di-AMP cyclase DacA by direct interaction with the phosphoglucosamine mutase GlmM” (PLoS Pathogens, 2019).

Series [1] has as its target S. aureus DacACD-K variant (N166K, T172K), tag-less (S. aureus). Briefly: SEC; tag-less proteins after Ni-NTA and thrombin cleavage on a Superdex 200 10/300 column, UV at 280 nm. For orientation: SEC sorts molecules by how far they enter the pores of the column.
The target of series [2] is S. aureus phosphoglucosamine mutase GlmM, tag-less (S. aureus) (UniProt P0C0V7). The series is described as follows: native MS; purified tag-less DacACD/GlmM complex, 13.5 uM in 200 mM ammonium acetate pH 7.5, nanoelectrospray, Waters Synapt QToF; species deconvoluted with Amphitrite. Particulars: scale: DacACD per GlmM.
In series [3] the target is S. aureus DacA catalytic domain (DacACD), tag-less (S. aureus). The series is described as above.
The target in series [4] is S. aureus phosphoglucosamine mutase GlmM, tag-less (S. aureus) (UniProt P0C0V7). The series is described as follows: SEC-SAXS; tag-less DacACD, GlmM and the DacACD/GlmM complex on a Superdex 200 5/150 column coupled to the SAXS beam, 30 mM Tris pH 7.5, 150 mM NaCl; envelopes reconstructed, crystal structures fitted.
Series [5] deals with S. aureus DacA catalytic domain (DacACD), tag-less (S. aureus). The description is as above.
Series [6] concerns the target S. aureus phosphoglucosamine mutase GlmM, tag-less (S. aureus) (UniProt P0C0V7). Briefly: SEC-MALS + native MS; purified tag-less DacACD/GlmM complex; SEC-MALS: 100 ul at 18 mg/ml, Superdex 200 Increase 10/300, 30 mM Tris pH 7.5, 150 mM NaCl; native MS: 13.5 uM in 200 mM ammonium acetate.
Series [7] concerns the target S. aureus DacA catalytic domain (DacACD), tag-less (S. aureus). Briefly: SEC; tag-less proteins after Ni-NTA and thrombin cleavage on a Superdex 200 10/300 column, UV at 280 nm.
Series [8] addresses S. aureus phosphoglucosamine mutase GlmM, C-terminally His-tagged (GlmM-His) (S. aureus) (UniProt P0C0V7).
Series [9] concerns the target S. aureus DacACD-C variant (N166C, T172C), tag-less (S. aureus). The series is described as follows: SEC; tag-less proteins after Ni-NTA and thrombin cleavage on a Superdex 200 10/300 column, UV at 280 nm.
Series [10] deals with the molecule itself. The series is described as follows: native MS; purified tag-less DacACD/GlmM complex, 13.5 uM in 200 mM ammonium acetate pH 7.5, nanoelectrospray, Waters Synapt QToF; species deconvoluted with Amphitrite.

For orientation: stoichiometry N means a count of units in the complex or per binding partner. Take “S. aureus DacACD-K variant (N166K, T172K), tag-less (domain or fragment)”: in series [1], the stoichiometry N was determined as 2.
Turning to “S. aureus DacA catalytic domain (DacACD), tag-less (domain or fragment)”, the stoichiometry N in series [2] was found to be 1; in [3], 2; in [5], 2; in [7] it was 2. In series [4], this molecule had a stoichiometry N (DacACD dimer per GlmM dimer) of 1. Also, the stoichiometry N (DacACD dimer per GlmM dimer (2:2)) in series [6] was 1. Further, the GlmM phosphoglucosamine mutase activity (coupled radioactive assay with GlmU), DacA in 5- to 400-fold excess over GlmM; no inhibition at 5- to 50-fold excess in series [8] is 15%.
In turn, “S. aureus DacACD-C variant (N166C, T172C), tag-less (domain or fragment)” returned a stoichiometry N in [9] of 2.

B1: S. aureus phosphoglucosamine mutase GlmM, tag-less (enzyme)
chain: MGKYFGTDGVRGVANQELTPELAFKLGRYGGYVLAHNKGEKHPRVLVGRDTRVSGEMLESALIAGLISIGAEVMRLGIISTPGVAYLTRDMGAELGVMISASHNPVADNGIKFFGSDGFKLSDEQENEIEALLDQENPELPRPVGNDIVHYSDYFEGAQKYLSYLKSTVDVNFEGLKIALDGANGSTSSLAPFLFGDLEADTETIGCSPDGYNINEKCGSTHPEKLAEKVVETESDFGLAFDGDGDRIIAVDENGQIVDGDQIMFIIGQEMHKNQELNNDMIVSTVMSNLGFYKALEQEGIKSNKTKVGDRYVVEEMRRGNYNLGGEQSGHIVMMDYNTTGDGLLTGIQLASVIKMTGKSLSELAGQMKKYPQSLINVRVTDKYRVEENVDVKEVMTKVEVEMNGEGRILVRPSGTEPLVRVMVEAATDEDAERFAQQIADVVQDKMGLDK
notes: phosphoglucosamine mutase GlmM of S. aureus (LAC* genomic DNA); C-terminal 6-His tag removed at the thrombin site; In the tag-less DacACD/GlmM complex (SASBDB SASDE78) this chain stands with m1; also called tag-less GlmM; source: E. coli BL21 (DE3), purified (Ni-NTA, thrombin cleavage of the His-tag, size exclusion chromatography); not shown: His6, C-terminal, cleaved
Consider B1, for which the “stoichiometry N” value in series [10] was 2.
